Test results as given in the supplement of paper PMC10567573.

Assay: protein stability index of a GFP-peptide fusion (GPS, HEK-293T) (PSI 1-6); higher = more stable
Settings: c terminus: native
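Further: lentivirally expressed fusion library, cells FACS-sorted into six equal-sized GFP/DsRed ratio bins, PSI computed from sequencing read fractions per bin weighted by bin number.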

## EQRNSRWNTVLRAVKAKTHHLEPG [TRPA1 addG]
parent: NP_015628.1
  protein stability index: 3.92

## DGWIRVSSDNVADLHEKYSGSTPG [PSMB5 addG]
parent: NP_002788.1
  protein stability index: 3

## LPALFTDLYSQEITAEEAREALPG [SNF8 addG]
parent: NP_009172.2
  protein stability index: 2.8

## CQPISFSGFGAEDDDLGGLGLGPG [POLD2 addG]
parent: NP_006221.1
  protein stability index: 2.37
